Source: patent US20150307625A1 (Bayer, published 2015)

T1: dog activated Protein C (dog, UniProt Q28278 43-456)
T1 construct: mature; also called dog aPC; dAPC
T1 sequence (looked up): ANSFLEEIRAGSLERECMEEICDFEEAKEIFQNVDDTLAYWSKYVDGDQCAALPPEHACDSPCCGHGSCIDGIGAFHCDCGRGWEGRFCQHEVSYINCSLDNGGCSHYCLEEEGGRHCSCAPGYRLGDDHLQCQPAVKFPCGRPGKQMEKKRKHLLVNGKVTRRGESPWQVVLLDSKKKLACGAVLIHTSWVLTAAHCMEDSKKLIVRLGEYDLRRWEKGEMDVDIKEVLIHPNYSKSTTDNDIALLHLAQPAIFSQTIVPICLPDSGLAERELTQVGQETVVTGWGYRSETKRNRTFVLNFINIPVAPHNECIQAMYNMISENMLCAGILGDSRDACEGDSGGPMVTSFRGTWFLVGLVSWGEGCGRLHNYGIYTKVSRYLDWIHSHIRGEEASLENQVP

T2: dog Protein C (zymogen) (dog, UniProt Q28278 43-456)
T2 construct: mature; also called dog PC
T2 sequence (looked up): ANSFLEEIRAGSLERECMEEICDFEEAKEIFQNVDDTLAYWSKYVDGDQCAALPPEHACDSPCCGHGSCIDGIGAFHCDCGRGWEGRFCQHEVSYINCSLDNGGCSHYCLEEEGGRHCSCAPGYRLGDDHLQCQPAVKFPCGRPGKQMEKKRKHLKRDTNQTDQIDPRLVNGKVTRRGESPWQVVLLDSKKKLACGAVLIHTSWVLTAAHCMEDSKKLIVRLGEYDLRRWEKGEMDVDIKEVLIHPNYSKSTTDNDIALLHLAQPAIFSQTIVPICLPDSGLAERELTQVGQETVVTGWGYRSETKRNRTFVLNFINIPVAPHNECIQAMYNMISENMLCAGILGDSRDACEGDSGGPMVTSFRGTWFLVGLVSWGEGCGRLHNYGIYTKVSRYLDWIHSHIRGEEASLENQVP

T3: mouse Protein C (zymogen) (mouse, UniProt P33587 42-460)
T3 construct: mature; also called mouse PC
T3 sequence (looked up): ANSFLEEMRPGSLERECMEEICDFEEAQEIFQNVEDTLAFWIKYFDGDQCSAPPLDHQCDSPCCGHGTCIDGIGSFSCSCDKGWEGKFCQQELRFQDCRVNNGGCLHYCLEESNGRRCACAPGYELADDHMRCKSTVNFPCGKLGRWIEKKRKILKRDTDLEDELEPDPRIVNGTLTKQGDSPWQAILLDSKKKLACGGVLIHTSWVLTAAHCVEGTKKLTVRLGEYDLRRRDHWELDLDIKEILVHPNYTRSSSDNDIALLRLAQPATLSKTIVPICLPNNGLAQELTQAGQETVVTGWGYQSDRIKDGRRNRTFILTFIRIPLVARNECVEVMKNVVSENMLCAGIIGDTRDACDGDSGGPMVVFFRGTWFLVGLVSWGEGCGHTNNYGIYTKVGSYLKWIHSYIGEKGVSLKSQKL


Tests used:
[1] = biological target: rabbit activated Protein C (rabbit) (UniProt Q28661); assay: cell-based or functional assay
[2] = biological target: T4, human activated Protein C (human, UniProt P04070 43-461); assay: ELISA, hIgG1
T4 construct: also called human aPC; hAPC

[3] = biological target: T4, human activated Protein C; assay: direct ELISA, aPC coated, hIgG1
[4] = biological target: T4, human activated Protein C; assay: cell-based or functional assay
[5] = biological target: rabbit activated Protein C (rabbit) (UniProt Q28661); assay: direct ELISA, aPC coated, hIgG1
[6] = biological target: rabbit activated Protein C (rabbit) (UniProt Q28661); assay: ELISA, hIgG1
dog activated Protein C [7] = biological target: T1, dog activated Protein C; assay: ELISA, hIgG1
dog activated Protein C [8] = biological target: T1, dog activated Protein C; assay: direct ELISA, aPC coated, hIgG1
dog Protein C (zymogen) [9] = biological target: T2, dog Protein C (zymogen); assay: direct ELISA, antigen coated
dog activated Protein C [10] = biological target: T1, dog activated Protein C; assay: cell-based or functional assay
[11] = biological target: T3, mouse Protein C (zymogen); assay: direct ELISA, mPC coated at 10 ug/ml, Fab at 20 nM, anti-human Fab-HRP, AmplexRed (RFU)
Experimental: (§1) To determine the binding selectivity of these fabs, their binding activities to the proenzyme human PC, to thrombin (FIIa), and to the activated Factor II (FIIa, thrombin), Factor VII (FVIIa), Factor IX (FIXa), and Factor X (FXa) were also assessed by ELISA. Briefly, an ELISA plate was coated with human aPC at 1 ug/ml, mouse PC at 10 ug/ml, dog PC at 10 ug/ml, other coagulation factors (FIIa, FVIIa, FIXa, FXa) at 5-10 ug/ml. Anti-aPC Fabs were added to the wells at 20 nM (1 ug/ml). Bound Fabs were detected by the secondary antibody (anti-human Fab-HRP) followed by HRP substrate AmplexRed.

dog activated Protein C [12] = biological target: T1, dog activated Protein C; assay: Biacore, Fab
[13] = biological target: T4, human activated Protein C; assay: Biacore, Fab
dog Protein C (zymogen) [14] = biological target: T2, dog Protein C (zymogen); assay: direct ELISA, dPC coated at 10 ug/ml, Fab at 20 nM, anti-human Fab-HRP, AmplexRed (RFU)
Experimental: as §1

dog activated Protein C [15] = biological target: T1, dog activated Protein C; assay: direct ELISA, antigen coated, Fab
[16] = biological target: T4, human activated Protein C; assay: direct ELISA, antigen coated, Fab
[17] = biological target: T5, human Protein C (zymogen) (human, UniProt P04070 43-461); assay: direct ELISA, antigen coated at 100 ng/well, Fab at 20 nM (1 ug/ml), anti-human Fab-HRP, AmplexRed (RFU)
T5 construct: also called human PC; hPC
Experimental: FIG. 3 depicts a graph characterizing anti-APC Fabs by direct ELISA. An ELISA plate was coated with human PC (hPC), human aPC (hAPC), dog aPC (dAPC), mouse aPC (mAPC) at 100 ng per well. Purified Fabs designate on the X-axis were added to the plate at 20 nM (1 ug/ml). Bound Fab was detected by the secondary antibody (anti-human Fab-HRP) followed by HRP substrate AmplexRed. The purified Fabs preferentially bind to human aPC and, with the exception of Fab R41C17, show little to no binding to human PC.
Antigens were coated directly on ELISA plates. Coating antigens included human PC (plasma-derived), human aPC (recombinant), dog aPC (plasma-derived), and mouse aPC (recombinant) at 100 ng/well in PBS/Ca buffer. After blocking the plate with 5% milk/PBS and washing the plate with PBS-Tween20, soluble Fabs (1 ug/ml, 20 nM) were added to the plate and incubated for 1 h at RT with shaking. Fab binding was detected with anti-human Fab (lambda) antibody-HRP and Amplex red as substrate. […] In contrast, R41C17 binds to both human APC and human PC. Also shown in FIG. 3 is cross-species reactivity of Fabs by ELISA.

[18] = biological target: T5, human Protein C (zymogen); assay: direct ELISA, antigen coated at 1 ug/ml, IgG at 20 nM, anti-human IgG-HRP, AmplexRed (RFU)
[19] = biological target: T4, human activated Protein C; assay: cell-based or functional assay; remark: listed apart in the source
[20] = biological target: T4, human activated Protein C; assay: cell-based or functional assay; remark: listed apart in the source

Binder | Anti-aPC IC50 (nM), Amidolytic activity [1] [nM] | EC50 [2] [nM] | EC50 [3] [nM] | Anti-aPC IC50 (nM), Amidolytic activity [4] [nM] | EC50 [5] [nM] | EC50 [6] [nM] | EC50 (dog activated Protein C [7]) [nM] | EC50 (dog activated Protein C [8]) [nM] | binding result (dog Protein C (zymogen) [9]) | Anti-aPC IC50 (nM), Amidolytic activity (dog activated Protein C [10]) [nM] | further results
C22J13 hIgG1 (antibody, V domains shown) VH: EVQLLESGGGLVQPGGSLRLSCAASGFTFSSNYMSWVRQAPGKGLEWVAVISYDGSNKYYADSVKGRFTISRDNSKNTLYLQMNSLRAEDTAMYYCALTGRSGWMRFPNWFDPWGQGTLVTVTS VL: QSVLTQPPSASGTPGQRVTISCSGSDSNIGSNAVNWYQQLPGTAPKLLIYDNNKRPSGVPDRFSGSKSGTSASLAISGLRSEDEADYYCSSYTSSNTVVFGGGTKLTVLG | 24 | 0.5 | 0.49 | 27 | 0.6 | 0.6 | – | – | – | – | –
C7A23 hIgG1 (antibody, V domains shown, also called C7A23-IgG) VH: EVQLLESGGGLVQPGGSLRLSCAASGFTFGNHWMTWVRQAPGKGLEWVSGVSWNGSRTHYADSVKGRFTISRDNSKNTLYLQMNSLRAEDTAVYYCALTGRSGWMRFPNWFDPWGQGTLVTVTS VL: QSVLTQPPSASGTPGQRVTISCSGSSSNIGNNYVSWYQQLPGTAPKLLIYRNNQRPSGVPDRFSGSKSGTSASLAISGLRSEDEADYYCQSYDSDLSGPYVLFGGGTKLTVLG | 25 | – | – | – | 7 | 7 | 10.9 | 10.9 | no binding | 49 | –
C7I7 Fab (Fab, V domains shown, Human Fab (lambda) from a phage library, expressed in E. coli; also called C717) VH: EVQLLESGGGLVQPGGSLRLSCAASGFTFGNHWMTWVRQAPGKGLEWVSGVSWNGSRTHYADSVKGRFTISRDNSKNTLYLQMNSLRAEDTAVYYCALTGRSGWMRFPNWFDPWGQGTLVTVTS VL: QSVLTQPPSASGTPGQRVTISCTGSSSNIGAGYDVHWYQQLPGTAPKLLIYGNSNRPSGVPDRFSGSKSGTSASLAISGLRSEDEAAYYCSSYVGSDLVVFGGGTKLTVLG | – | – | – | – | – | – | – | – | – | – | binding result [11]: no binding (tested: 20 nM); Kd (dog activated Protein C [12]): 1.3 nM; Kd [13]: 1.3 nM; binding result (dog Protein C (zymogen) [14]): no binding (tested: 20 nM); EC50 (dog activated Protein C [15]): 3.9 nM; EC50 [16]: 6.3 nM; binding result [17]: no binding (tested: 20 nM)
C25K23 IgG1 (antibody, V domains shown, the claims call them variable regions; also called C25K23 hIgG; C25K23 hIgG1) VH: EVQLLESGGGLVQPGGSLRLSCAASGFTFSSYWMSWVRQAPGKGLEWVSGVSWNGSRTHYADSVKGRFTISRDNSKNTLYLQMNSLRAEDTAVYYCALTGRSGWMRFPNWFDPWGQGTLVTVSS VL: QSVLTQPPSASGTPGQRVTISCTGSSSNIGAAYDVHWYQQLPGTAPKLLIYGNNKRPSGVPDRFSGSKSGTSASLAISGLRSEDEADYYCQSYDSSLSGSVFGGGTKLTVLG | – | 1.2 | 1.25 | 131 | – | – | 3.4 | 3.4 | no binding | 692 | binding result [18]: no binding (tested: 20 nM)
C7I7 hIgG1 (antibody, V domains shown, also called C717-IgG) VH: EVQLLESGGGLVQPGGSLRLSCAASGFTFGNHWMTWVRQAPGKGLEWVSGVSWNGSRTHYADSVKGRFTISRDNSKNTLYLQMNSLRAEDTAVYYCALTGRSGWMRFPNWFDPWGQGTLVTVTS VL: QSVLTQPPSASGTPGQRVTISCTGSSSNIGAGYDVHWYQQLPGTAPKLLIYGNSNRPSGVPDRFSGSKSGTSASLAISGLRSEDEAAYYCSSYVGSDLVVFGGGTKLTVLG | 29 | 2.7 | 2.66 | 64 | 2 | 2 | 2.3 | 2.3 | no binding | 147 | aPTT, inhibition of aPC activity at 1 ug/ml IgG (1:1 molar ratio) [19]: ~50%; binding result [18]: no binding (tested: 20 nM)
C25K23 Fab (Fab, V domains shown, Human Fab (lambda) from a phage library, expressed in E. coli; also called Fab C25K23) VH: EVQLLESGGGLVQPGGSLRLSCAASGFTFSSYWMSWVRQAPGKGLEWVSGVSWNGSRTHYADSVKGRFTISRDNSKNTLYLQMNSLRAEDTAVYYCALTGRSGWMRFPNWFDPWGQGTLVTVTS VL: QSVLTQPPSASGTPGQRVTISCTGSSSNIGAAYDVHWYQQLPGTAPKLLIYGNNKRPSGVPDRFSGSKSGTSASLAISGLRSEDEADYYCQSYDSSLSGSVFGGGTKLTVLG | – | – | – | – | – | – | – | – | – | – | binding result [11]: no binding (tested: 20 nM); Kd (dog activated Protein C [12]): 5.2 nM; Kd [13]: 2 nM; binding result (dog Protein C (zymogen) [14]): no binding (tested: 20 nM); EC50 (dog activated Protein C [15]): 8.2 nM; EC50 [16]: 4.3 nM; binding result [17]: no binding (tested: 20 nM)
Variant 2312 (modified C25K23 IgG) (antibody, V domains shown) VH: EVQLLESGGGLVQPGGSLRLSCAASGFTFSSYWMSWVRQAPGKGLEWVSGVSWNGARTHYADSVKGRFTISRDNSKNTLYLQMNSLRAEDTAVYYCALTGRSGWMRFPNWFDPWGQGTLVTVSS VL: QSVLTQPPSVSGAPGQRVTISCTGSSSNIGAAYDVHWYQQLPGTAPKLLIYGNNKRPSGVPDRFSGSKSGTSASLAITGLQAEDEADYYCQSYDSSLSGSVFGGGTKLTVLG | – | – | – | – | – | – | – | – | – | – | IC50 (read off the curve), amidolytic activity of human aPC [b] [20]: ~10 nM
